Article PMC4089490, “Structures of the NLRP14 pyrin domain reveal a conformational switch mechanism regulating its molecular interactions” (Acta Crystallographica Section D: Biological Crystallography, 2014)

Legend:
Q86W24 = test: SEC; analytical Superdex 75 10/300, 20 mM Tris pH 8.0, 150 mM NaCl, 5 mM TCEP; 700 µl at 1 mg/ml injected; monomer:dimer ratio from peak areas
[1] = target: the molecule itself; test: as above

B1: NLRP14 PYD (wild-type NLRP14 pyrin domain, residues Met1-Gln100) (domain or fragment, human, UniProt Q86W24 1-100, looked up)
chain: MADSSSSSFFPDFGLLLYLEELNKEELNTFKLFLKETMEPEHGLTPWNEVKKARREDLANLMKKYYPGEKAWSVSLKIFGKMNLKDLCERAKEEINWSAQ
notes: NLRP14 pyrin domain, human, residues Met1-Gln100, amplified from human NLRP14 cDNA GenBank NM_176822.3; The crystal structure (PDB 4n1j) was solved from selenomethionine-labelled protein expressed in SeMet minimal medium and purified identically; SEC used the native protein; also called wild-type NLRP14 PYD; wild-type PYD; source: E. coli BL21 Star (DE3), purified (Ni-NTA, eluted by thrombin …)
dimer fraction (SEC peak area) (Q86W24): dimeric (17%) | stoichiometry N [1]: 2

B2: NLRP14 PYD D86V (protein)
chain: MADSSSSSFFPDFGLLLYLEELNKEELNTFKLFLKETMEPEHGLTPWNEVKKARREDLANLMKKYYPGEKAWSVSLKIFGKMNLKVLCERAKEEINWSAQ
dimer fraction (SEC peak area) (Q86W24): 12.13 ml, 24%
